In the nanobody polyreactivity screen of Harvey et al. (2022):

Assay: yeast display, Sf9 membrane polyspecificity reagent, FACS + sequencing; frameworks hold sequencing errors
Method in brief: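 Galactose induction of a Saccharomyces cerevisiae BJ5465 synthetic nanobody display library ran 36–48 hours. The cells were then stained for 1 hour at 4 °C with 10% biotinylated, detergent-solubilized Sf9 membrane reagent, pulled down on streptavidin microbeads and FACS-sorted into low and high (top ~1%) gates on expression and reagent-binding fluorescence. Labels for polyreactivity follow the gate of origin.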
For “QVQLVESAGGLVQAGVSLRISCAASGSTIRHYAMGWYRQAPRKERELVAAISSGARTYYADSEKGRFTISRDNAKNTVYLQMNSLKPEDTAVYYRAARYNGYANPYYYWGQGTQVTVSS”, the “polyreactivity (PSR sort gate)” value was “high polyreactivity”. In the case of “QVQLVESGGGLVQAGGSLRLSCAASGRTFLYYAMGWYRQAPGKERELVARITLDGGSTNYADSVKGRFTISRDNAKNTVYLQMNSLKPEDTAVYYCAAQRGGPFPRVVDLYDYWGQGTQVTVSS”, the “polyreactivity (PSR sort gate)” value was “low polyreactivity”. With “QVQLVESGGGLVQAGGSLRLSCAASGSILYPYAMGWYRQAPGKERELVAAISRGGSTNYADSVKGRFTISRDNAKNTVYLQMNSLKPEDTAVYYCATAYTRFSQRYEYYVIYWQNDYWGQGTQVTVSS” the “polyreactivity (PSR sort gate)” value was “low polyreactivity”. In the case of “QVQLVESGGGLVQAGGSLRISCAASGSTFEDNAMGWYRQAPGKERELVAAITSGGNTYYADSVKGRFTISRDNSKNTVYLQMNSLKPEDTAVYYCNAVPFYYDFDYWGQGTQVTVSS”, the “polyreactivity (PSR sort gate)” value was “low polyreactivity”. With “QVQLVESGGALVQAGGSLRLSCAASGLIFYYYAMGWNRPAPGKERELVAAISGGGSTYYADSVKGRFTISRDNAKNTVYLQMNSLKPEDTAVYYCAASFRYPSWLYDYWGQGTQVTVSS” the “polyreactivity (PSR sort gate)” value was “low polyreactivity”. For “QVQLVESGGGLVQAGGSLRLSCAASGSTFNYYAMGWYRQAPGKERELVAAIDWSGGSTYYADSVKGRFTISRDNAKNTVYLQMNSLKPEDTAVYYCAARTYDYSYRSYDYWGQGTQVTVSS”, the “polyreactivity (PSR sort gate)” value was “low polyreactivity”. In the case of “QVQLVESGGGLVQAGGSLRLSCAASGRIFGYYAMGWYRQAPGKERELVAAISQGGGSTYADSVKGRFTISRDNAKNTVYLQMNSLKPEDTAVYYCAKRRRTGYGYWGQGTQVTVSS”, the “polyreactivity (PSR sort gate)” value was “high polyreactivity”. For “QVQLVESGGGLVQAGGSLRLSCAASGGTFVRNTMGWSRQAPGKERELVAGITKNGGSTYYADSVKGRFTISRDNAKNTVYLQMNSLKPEVTAVYYCAIYVSWPLYYYWGQGTQVTVSS”, the “polyreactivity (PSR sort gate)” value was “low polyreactivity”. In the case of “QVQLVESGGGLVQAGGSLRLSCAASGSTFSFNAMGWYRQAPGKERELVAAITYSGGDTYYADSVKGRFTISRDNAKNTVYLQMNSLKPEDTAVYYCAAKIPRPYAMDYWGQGTQVTVSS”, the “polyreactivity (PSR sort gate)” value was “low polyreactivity”. In the case of “QVQLVESGGGLVHAGGSLSLSCAASGSTLRAYTMGWYRQSPGKERELVATITRRGGTTYYADSVKGRFTISRDNAKNTVYLQMNSLKPEDTAVYYCAAKWYSTHRYDYWGQGTQVTVSS”, the “polyreactivity (PSR sort gate)” value was “high polyreactivity”. For “QVQLVESGGGLVQAGGSLRLSCAASGSIFVGNAMGWYRQAPGTERELVAAISSSGGSTYSADSVKGRFTISRDNAKNTVYLQMNSLKPEDTAVYYCAADTYSTSGYYYWGQGTQVTVSS”, the “polyreactivity (PSR sort gate)” value was “low polyreactivity”. In the case of “QVQLVDSGGGLVQAGGILRLSCAASGNIIYQNALVWSRHAPGKERELVAAITGRGSSTYYADSVKGRFTSSRDNAKNTVYLQMNSLKPEDTAVYYCAADTTPYDGYYGHGYWGQGTQVTVSS”, the “polyreactivity (PSR sort gate)” value was “low polyreactivity”. With “QVQLVESGGGLDQAGGSLRLSCAASGIIFSQYAMGWYRQAPGKERELVAGITRSGGSTYYADSVKGRFTISRDNAKNTVYLQMNSLKPEDTAVYYCAAVQRYEYGYWGQGTQVTVSS” the “polyreactivity (PSR sort gate)” value was “high polyreactivity”. For “QVQLVESGGGLVQAGGSLRLSCAASGSTFWGYAMGWYRQAPGKERELVATINQSAGSTYYADSVKGRFTISRDYAKNTVYLQMNSLKPEDTAVYYCAAEARVQFSYDYWGQGTQVTVSS”, the “polyreactivity (PSR sort gate)” value was “low polyreactivity”. With “QVQLVESGGGLVQAGGSLRLSCAASGGTFSPYDMGWYRQAPGKERELFASITGSGGSTYYADSVKGRFTISRDNAKNTVYLQMNSLKPVDTAVYDCATQPLTWSSYRWDWRAQFDHWGQGTQVTVSS” the “polyreactivity (PSR sort gate)” value was “low polyreactivity”. With “QVQLVESGGGLVQAGGSLRLSCAASGSTFYYYAMGWYRPAPGKERELVATIDSGTSTYYADSVKGRFTISRDNAKNTVYFQMNSLKPEDTAVYYCAAKTWSWSYGYNYWGQGTLVTVSS” the “polyreactivity (PSR sort gate)” value was “low polyreactivity”. With “QVQHVESGGGLVQAGGSLRLSCAASGRIFPYYAMGWYRQAPGKERELVATITSGGSTYYADSVKGRFTISRDNAKNTVYLQMNSLKPEDTAVYYCAARYPSIYYYSYDYWGQGTQVTVSS” the “polyreactivity (PSR sort gate)” value was “high polyreactivity”. With “QVQLVESGGGLVQAGGSLRLSCSASGYTFSSYGMGWYRQAPGKERELVAAITGSTGTTYYADSVQGRFTISRDNAKNTVYLQMISLKPEDTAVYYCAAEYQSYPWYDYWGQGTQVTVSS” the “polyreactivity (PSR sort gate)” value was “high polyreactivity”. For “QVQLVESGGGLVQAGGSLRLSCAASRRTFNGNAMGWYRQAPGKETELVATITSSAGTTYYADSVKGRFTISRDNAKNTVYLQMNSLKPEDTAVYYCAKRIWRSYPYRPYYSEFGYWGQGTQVTVSS”, the “polyreactivity (PSR sort gate)” value was “high polyreactivity”. In the case of “QVQLVESGGGIVQAGGSLRLSCAASGRIFGGNSMGWYRQAPGKERELVAAITTSGGSTYYADSVKGRFTISRDNAKNTVYLQMNSLKPEDTAVYSCAAGIGDSYWYRRYGYWGQGTQVTVSS”, the “polyreactivity (PSR sort gate)” value was “low polyreactivity”. For “QVQLVESGGGLVQAGGSLRLSCAASGRTITWNAMGWYRQAPGKERELVADITNNGGSTYYADSVKGRFTISRDNAKNTVYLQMNSLKPEDTAVYYCAKRRNYWFSFDYWGQGTQVTVSS”, the “polyreactivity (PSR sort gate)” value was “low polyreactivity”. For “QVQLVESGGGLVQAGGSLRLSCAASGRITYYAMGWYRQAPGKERELVAVISWSGSSTNYADSVKGRFTISRDNAKNTVYLQMNSLKPEDTAVYFCAAENAVTGTDGEYYYWGQGTQVTVSS”, the “polyreactivity (PSR sort gate)” value was “high polyreactivity”. With “QVQLVESGGGLVQAGGSLRLSCAASGGTFLGNAMGWYRQAPGKERELVADITSGGSTNYADSVKGRFTISRDNAKNTVYLQMNSLKPEDTAVDYCNAEYSTSTVWEYDYWGQGTQVTVSS” the “polyreactivity (PSR sort gate)” value was “low polyreactivity”. With “QVQLVDSGGGLVQAGGSLRLSCAPSGFTIYKYVMGWDRQAPGKDREVVAAITTCGGSTYYADSVKGRFTISRDYAKNTVYLQMNSLKPEHTAVDYCNARSLHTSEGDYWGQGTQVTVSS” the “polyreactivity (PSR sort gate)” value was “low polyreactivity”. For “QVQLVESGGGLVQAGGSIRLSCAASGFTFDAYAMGWYRQAPGKESELVAAITTSGGNTNYADSVKGRFTISRDNAKNTVYLQMNSLKPEDTAVYYCASDAAVEYGKISYDYWGQGTQVTVSS”, the “polyreactivity (PSR sort gate)” value was “low polyreactivity”. For “QVQLVESGGGLVQAGGSLRLSCAASGRIFGFNAMGWYRQAPGKERQLVAAISGRSGRTYYADSVKGRFTISRDNAKNTVYLQLNSLIPEDTAVYYCNTVGYRGPSWYVYWGQGTQVTVSS”, the “polyreactivity (PSR sort gate)” value was “high polyreactivity”. In the case of “QVQLVESGGGLVQAGGSLRLSCAASGSIYPNYTMGWYRQAPGKERQLVAAITISGGTTYYSDSVKGRFTISRDNAKNTVYLQMISLKPEDTAVYYCADYHRDRNSGFDYWGQGTQVTVSS”, the “polyreactivity (PSR sort gate)” value was “high polyreactivity”. For “QVQLQDSGGGLVQARGSLRPSCAASGTISDGVPMGWYRQAPGEVRELVATTVLGATTNYADSVKGRFTISRGNAKNTVYLQMNSLKPEETAVYYCAAPLRYDKGFSYWGQGTQVTVSS”, the “polyreactivity (PSR sort gate)” value was “low polyreactivity”. For “QVQLVESGGGLVQAGGSLRISCAASGSIFDLNAMGWYRQAPGKERELVAAISSGGRTTYADSVKGRFTISRDNAKNTVYLQMNSLKPEDTAFYYCNAVGDVFPRTGPIYDYWGQGSQVTVSS”, the “polyreactivity (PSR sort gate)” value was “high polyreactivity”. For “QVQLVESGGGLVQAGGSLRLSCAASAFTFRYNAMGWYRQAPGKERELVATIDWSGGRTYYADSVKGRFTISRDNAKNTVYLQMNSLKPEDTAVYYCNAAALFRYYVRWKSAYDYWGQGTQVTVSS”, the “polyreactivity (PSR sort gate)” value was “high polyreactivity”. In the case of “QVQLVESGGGLVQAGGSLRLSCAASGNTFIGNAMGWYRQAPGKERELVAAISWSTDSTYYADSVKGRFTISRDNAKNSVYLQMNSLKPEDTAINYCAADYSHLPIAWYYYWGQGTQVTVSS”, the “polyreactivity (PSR sort gate)” value was “low polyreactivity”. For “QVQLVESGGGLVQAGGRLRLSCAPSGRIFVYNAMGWYRQAPGKERELVAAINSGDSTYYADSVKGRFTISRDNAKKTVYLQMNSLKPEDTAVYYCARDGWAFSIYYDLDYWGQGTQVTVSA”, the “polyreactivity (PSR sort gate)” value was “low polyreactivity”. For “QVQLVESGGGLVQAGGRLRLTCAASGSIFPTYDLGWYRQAPGKERELVAAIRGDGSTNYADSVKGRFTISRDNAKNTVYVQMNSLKPEDTAVSYCAAVSSEYVFRYGGYWGQGTQVTVSS”, the “polyreactivity (PSR sort gate)” value was “low polyreactivity”. For “QVQLVESGGGLVQAGGSLRLSCAASGSISTPYTMGWYRQAPGKERELVAAISWIGDTTSYADSVKGRFTISRDNAKNTVYLQMHSLKPEETAVYYCNAEHRGYDYWGQGTQVTVSS”, the “polyreactivity (PSR sort gate)” value was “low polyreactivity”. For “QVQLVESGGGLVQAGGSLRLSSAASGSIFYGYAMGWYRQAPGKERELVATISWSAGSTYYADSVKGRFTISRDNAKTTVYLQMNSLKPEDTAVYYCATRVFTSSYRYRYGYWGQGTQVTVSS”, the “polyreactivity (PSR sort gate)” value was “high polyreactivity”. With “QVQLVESGGGLVQAGGSLRLSCAASGFTFEYYALGWYRPAPGKERELVAAITYSGGSTYYADSVKGRFTISRDNAKITVYLQLNSLKPEDTAVYYCATESPRYRLYQSAVYGYFYWGQGTQVTVSS” the “polyreactivity (PSR sort gate)” value was “high polyreactivity”. In the case of “QVQLVESGGGLVQAGGSLRLSCAASGYTFGSSTMGWYRPAAGTERELVAAISNRGGPYYADAVKGRFTISRDNAKNTVYLQMNSLTPEDTAVYYCAVARRCGYDYWGQGTQVTVSS”, the “polyreactivity (PSR sort gate)” value was “high polyreactivity”. In the case of “QVQLVESGGGLVQAGGSLRLSCAASGSIFYGNAMGWYRPAPGKERELVAGITSGVGTNYADSVKGRFTISRDNAKNTVYLQMNSLKPEDTAVYYCAARVYRYRHYDYWGQGTQVTVSS”, the “polyreactivity (PSR sort gate)” value was “high polyreactivity”. For “QDQLVESGGGLVQAGGSLRLSCAASGFTCRYYAMGWYRQAPGKERELVAAITGSGTRTYYADSVKGRFTISRDNAKNTVYLQMNSLKPEETAVYYCYPPRQPRWFDYWGQGTQVTVSS”, the “polyreactivity (PSR sort gate)” value was “high polyreactivity”. In the case of “QVQLVESGGGLVQAGGSLRLSCAASGLIFSAYAMGWYRQAPGKERELVAAISRRGTSTYYADSVKGRFTISRDNAKNTVYLQMNSLKPEDTGVYYCAADGYVFEGDYWGQGTQVTVSS”, the “polyreactivity (PSR sort gate)” value was “high polyreactivity”. With “QVQLVESGGGLVQEGGSLRLSCAASGSTFFTYAMGWYRQAPGKERELVAAISSSGGSTYYADSVKGRFTISRDNAKNTVYLQMNSLIPEDTAVDYCNAKLYLPYDPTDEYDYWGQGTQVTVSS” the “polyreactivity (PSR sort gate)” value was “low polyreactivity”. With “QVQLVESGGGLVQAGGSLRLSCAATGLTFKENVMGWYRQAPGKERELVAAISTGASTYYADSVNGRFTISRDNAKNTVYLQMNSLKPEDTAVYYCAKRVTPWYGYWGQGTQVTVSS” the “polyreactivity (PSR sort gate)” value was “high polyreactivity”. In the case of “QVQLVESGGGLVQAGGSLRLSCAASGFTFRKNAMGWYRQAPGKERELVAAISSGSGSTYYADSVKGRFTISRDNAKNTVYLQMNSLKPEDTAVYYCNSEAYYTTGYPTSDVFDRYDYWGKGTQVTVSS”, the “polyreactivity (PSR sort gate)” value was “low polyreactivity”.
